According to patent US10806798B2, “Compound with effects of thrombolysis, free radical scavenging and thrombus-targeting” (Shanghai Lumosa Therapeutics Co., Ltd., priority 2012, dated 2020):
Bridge positions count the residues as written; N and C are the ends. Peptide text beside a SMILES is read from it. I, II: the chains in the order shown. * marks the point of attachment. X1 = CC1(C)N([O])C(c2ccc(OCC(=O)*)cc2)=[N+]([O-])C1(C)C

Legend:
[1] = FT-MS monitoring of metabolic products in brain tissues of rats treated with Ie; assay type: in vivo
Protocol: The entire rat brain was taken out and placed into a 50 mL centrifuge tube, into which 10 mL 0.9% NaCl was added, and homogenized to obtain a uniform suspension which was then centrifuged at 3000 rpm for 10 min. 5 mL supernatant was added into 10 mL methanol and evenly mixed by shaking, and centrifuged at 3000 rpm for 10 min. The supernatant was concentrated under reduced pressure until dry, followed by addition of 1 mL methanol, and again centrifuged at 12000 rpm for 10 min. The resultant supernatant was used for monitoring of the content of metabolic products in brain tissues in rats treated with compound Ie.
(MS conditions: loading: 10 μL; ionization mode: ES+; cone voltage: 30 V; mobile phase flow rate: 0.2 mL/min). According to the above data, the metabolic products M1 and M2 were assumed as the following compounds: […]

rats with stroke [2] = experiment: Treatment 24 h after the onset of stroke, Ie 5 μmol/kg initially then 2 μmol/kg (Zealonga scores); assay type: in vivo, SD rats; conditions: Ie 5 μmol/kg on day 1 (24 h after onset), 2 μmol/kg per day for 5 days
Protocol: (§1) The efficacy was represented by neural function scores, and a lower score indicates a higher efficacy. A 10% chloral hydrate solution was injected intraperitoneally into male SD rats at a dosage of 400 mg/kg body weight for anesthesia. A longitudinal open incision was made at the center of the neck, and the right common carotid artery trunk was dissected (about 3 cm in length). Carotid external artery branches were each dissected and ligated at the hyoid level, and the carotid internal artery was dissected at the swollen part of the neck. The open incisions in the carotid internal artery and the proximal end of the common carotid artery were occluded respectively with noninvasive arterial clips, and the distal end of the carotid external artery was ligated. A catheter containing 0.5 mL thrombus suspension in normal saline was inserted in the carotid external artery trunk. At the same time when the clip on the carotid internal artery was released, the 0.5 mL thrombus suspension in normal saline in the catheter slowly flew from the carotid external artery to its proximal end, and then was injected into the arteries in brain through the carotid internal artery. […] The rats were compared to themselves each day, and evaluated for the degree of damage in neural function by the Zealonga method. […]

rats with stroke [3] = experiment: Treatment 6 h after the onset of stroke induced by aged thrombus, Ie 2 μmol/kg (Zealonga scores); assay type: in vivo, SD rats; conditions: 2 μmol/kg Ie per day for 6 days from 6 h after onset
Protocol: as §1

rats with stroke [4] = experiment: Treatment 6 h after the onset of stroke, Ie 5 μmol/kg initially then 2 μmol/kg (Zealonga scores); assay type: in vivo, SD rats; conditions: Ie 5 μmol/kg on day 1 (6 h after onset), 2 μmol/kg per day for 5 days
Protocol: as §1, with “indicates” for “indicates a”, “incision” for “incisions”

Question: With CC(C)[C@H](NC(=O)[C@H](CC(=O)O)NC(=O)CNC(=O)[C@H](CCCNC(=N)N)NC(=O)[C@H](CCCCNC(=O)[C@H](CCCCN)NC(=O)[C@H](C)NC(=O)[C@@H]1CCCN1C(=O)[C@H](CCCNC(=N)N)NC(=O)CN)NC(=O)COc1ccc(C2=[N+]([O-])C(C)(C)C(C)(C)N2[O])cc1)C(=O)O [Ie, 1,3-dioxo-2-{4′-oxyacetyl-[N^ω-(Gly-Arg-Pro-Ala-Lys)-Lys-Arg-Gly-Asp-Val]phenyl}-4,4,5,5-tetramethylimidazoline] (I: H-GRPAK / II: X1-KRGDV-OH; amide I:C-II:1) as the compound, how does the “crossing of the blood-brain barrier” value ([1]; concluded from metabolic products found in rat brain) read?
Answer: Its value is “did indeed cross the blood-brain barrier”.

Question: And the “metabolic products in brain tissues” value ([1]; rats treated with compound Ie, high-resolution FT-MS)?
Answer: Its value is “two metabolic products M1 and M2 in the brain”.

Question: What about the “rats dead among the 12 rats that received the treatment” value (rats with stroke [2]) of the same compound?
Answer: Its value is “three were dead”.

Question: And the “rats dead among the 12 rats that received the treatment” value (rats with stroke [3])?
Answer: Its value is “six were dead”.

Question: What about the “rats dead among the 12 rats that received the treatment” value (rats with stroke [4]) of the same compound?
Answer: Its value is “two were dead”.
